According to patent US20240115722A1:

Target: human EPH receptor A5 (EphA5) expressed on cells (human) (UniProt P54756)
Assay: high-throughput flow cytometry, HEK293T cells expressing wild-type EPHA5 versus vector alone, Fab at 0.50 µg/ml

human EPH receptor A5 (EphA5) expressed on cells (human), sequence (P54756 25-1037 limits assumed): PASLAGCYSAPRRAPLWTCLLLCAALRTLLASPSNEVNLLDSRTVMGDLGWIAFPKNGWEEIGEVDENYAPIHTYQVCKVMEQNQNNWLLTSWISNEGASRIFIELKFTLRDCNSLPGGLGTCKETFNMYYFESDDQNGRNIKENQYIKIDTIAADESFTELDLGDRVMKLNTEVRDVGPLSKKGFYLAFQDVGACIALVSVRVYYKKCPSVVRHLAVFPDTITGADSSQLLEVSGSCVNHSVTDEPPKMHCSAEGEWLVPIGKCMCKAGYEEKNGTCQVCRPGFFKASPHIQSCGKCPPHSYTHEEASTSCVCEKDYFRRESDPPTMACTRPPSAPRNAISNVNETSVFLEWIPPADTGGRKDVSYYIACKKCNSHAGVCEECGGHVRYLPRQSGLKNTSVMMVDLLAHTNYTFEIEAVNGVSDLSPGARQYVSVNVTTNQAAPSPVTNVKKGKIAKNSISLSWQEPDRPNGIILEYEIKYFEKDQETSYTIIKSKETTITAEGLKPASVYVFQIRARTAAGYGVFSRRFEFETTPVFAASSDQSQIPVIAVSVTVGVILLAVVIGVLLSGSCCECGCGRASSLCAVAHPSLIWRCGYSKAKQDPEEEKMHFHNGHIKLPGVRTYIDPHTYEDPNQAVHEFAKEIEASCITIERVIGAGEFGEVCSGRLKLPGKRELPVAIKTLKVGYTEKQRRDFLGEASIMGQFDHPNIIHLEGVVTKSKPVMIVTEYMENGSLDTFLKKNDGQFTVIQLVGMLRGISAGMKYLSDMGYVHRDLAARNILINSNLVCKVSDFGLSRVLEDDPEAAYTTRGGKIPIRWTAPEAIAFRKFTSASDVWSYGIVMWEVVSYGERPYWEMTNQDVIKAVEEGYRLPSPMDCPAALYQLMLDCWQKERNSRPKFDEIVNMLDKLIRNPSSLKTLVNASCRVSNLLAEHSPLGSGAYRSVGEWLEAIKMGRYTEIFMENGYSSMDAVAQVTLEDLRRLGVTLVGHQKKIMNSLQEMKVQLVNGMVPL

| Signal:Background | Binder |
| --- | --- |
| 70 | Fab derived from the H5K3 antibody (Fab, part only; not given: CH1 and upper hinge limits, V domains shown, not shown: another chain or arm of the molecule; a dimerising Fc or GST) VH: EVQLVESGGGLVQPGGSLKLSCAASGFTFSTFGIHWVRQAPGKGLEWVAYISGASTTIYYADSVKGRFTISRDNSKNTLYLQMNSLRAEDTAVYYCARYGTSFPYGLDYWGQGTLVTVSS VL: DIVMTQSPDSLAVSLGERATINCKASQSVDYDGDSYMNWYQQKPGKAPKLLIYGASNLESGIPDRFSGSGSGTDFTLTISRLEPEDAAVYYCQQSNEDPFTFGQGTKLEIK |
| 66 | Fab derived from the H4K3 antibody (Fab, part only; not given: CH1 and upper hinge limits, V domains shown, not shown: another chain or arm of the molecule; a dimerising Fc or GST) VH: EVQLVESGGGLVQPGGSLKLSCAASGFTFSTFGIHWVRQAPGKGLEWVAYISGASTTIYYADTVKGRFTISRDNSKNTLYLQMNSLRAEDTAVYYCARYGTSFPYGLDYWGQGTLVTVSS VL: DIVMTQSPDSLAVSLGERATINCKASQSVDYDGDSYMNWYQQKPGKAPKLLIYGASNLESGIPDRFSGSGSGTDFTLTISRLEPEDAAVYYCQQSNEDPFTFGQGTKLEIK |
